Reference: FireProtDB (doi:10.1021/ja046667t)
Where “and” joins values, the source holds several entries; their conditions need not be identical. Equal values may be shown once.

Conditions: pH 7, Thermal, CD, Phosphate 50 mM, whole UniProt chain shown

Protein	unfolding free energy (Pseudomonas aeruginosa (strain ATCC 15692 / DSM 22644 / CIP 104116 / JCM 14847 / LMG 12228 / 1C / PRS 101 / PAO1), 25 °C)	unfolding enthalpy (van 't Hoff) (Pseudomonas aeruginosa (strain ATCC 15692 / DSM 22644 / CIP 104116 / JCM 14847 / LMG 12228 / 1C / PRS 101 / PAO1))	unfolding enthalpy (van 't Hoff) (Hydrogenobacter thermophilus (strain DSM 6534 / IAM 12695 / TK-6), 25 °C)	unfolding enthalpy (van 't Hoff) (Hydrogenobacter thermophilus (strain DSM 6534 / IAM 12695 / TK-6))
Cytochrome c-551 wild type, P00099 (protein) MKPYALLSLLATGTLLAQGAWAEDPEVLFKNKGCVACHAIDTKMVGPAYKDVAAKFAGQAGAEAELAQRIKNGSQGVWGPIPMPPNAVSDDEAQTLAKWVLSQK	7.7 kcal/mol and 19.5 kcal/mol	70.5 kcal/mol and 159 kcal/mol		
Cytochrome c-552 wild type, P15452 (protein) MKKFLLVAVVGLAGITFANEQLAKQKGCMACHDLKAKKVGPAYADVAKKYAGRKDAVDYLAGKIKKGGSGVWGSVPMPPQNVTDAEAKQLAQWILSIK			56.3 kcal/mol and 64.2 kcal/mol	109 kcal/mol and 140 kcal/mol
